{
  "source": "patent US20240301062A1",
  "key": {"[1]": {"target": "human claudin 6 (CLDN6) (human) (UniProt P56747)", "sequence (P56747 whole entry)": "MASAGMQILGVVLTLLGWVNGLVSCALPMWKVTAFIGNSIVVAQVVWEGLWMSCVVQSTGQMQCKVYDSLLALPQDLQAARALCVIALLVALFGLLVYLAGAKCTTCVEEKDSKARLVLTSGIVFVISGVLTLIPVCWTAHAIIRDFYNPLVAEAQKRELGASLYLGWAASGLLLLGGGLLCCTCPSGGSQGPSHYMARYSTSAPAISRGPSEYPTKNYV", "test": "flow cytometry, CHOK1/human CLDN6-GFP cells"}, "cyno CLDN6 (cyno)": {"target": "cyno CLDN6 (cyno)", "test": "flow cytometry, CHOK1/Cyno CLDN6-GFP cells"}, "[2]": {"target": "human claudin 6 (CLDN6) (human) (UniProt P56747)", "test": "flow cytometry, PA-1 cells (endogenous CLDN6)"}, "[3]": {"target": "human claudin 9 (CLDN9) (human) (UniProt O95484)", "sequence (O95484 whole entry)": "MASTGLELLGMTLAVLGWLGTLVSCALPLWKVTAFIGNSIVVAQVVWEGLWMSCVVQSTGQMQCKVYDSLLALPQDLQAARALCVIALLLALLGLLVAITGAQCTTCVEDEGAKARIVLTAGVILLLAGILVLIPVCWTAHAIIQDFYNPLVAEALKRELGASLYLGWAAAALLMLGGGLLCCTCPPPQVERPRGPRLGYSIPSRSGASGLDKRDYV", "test": "flow cytometry, CHOK1/human CLDN9-GFP cells"}, "mouse CLDN6 (mouse)": {"target": "mouse CLDN6 (mouse) (UniProt Q9Z262)", "sequence (Q9Z262 whole entry)": "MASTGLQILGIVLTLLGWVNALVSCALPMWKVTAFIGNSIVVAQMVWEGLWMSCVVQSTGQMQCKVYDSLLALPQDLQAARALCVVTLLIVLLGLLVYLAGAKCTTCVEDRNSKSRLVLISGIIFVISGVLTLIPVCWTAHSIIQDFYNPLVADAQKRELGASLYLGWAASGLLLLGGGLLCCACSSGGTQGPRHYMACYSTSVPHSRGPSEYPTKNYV", "test": "flow cytometry, CHOK1/mouse CLDN6-GFP cells"}},
  "data": [
    {"substance": "Human IgG1 isotype Ctrl. (antibody)", "values": [
      {"measurement": "Emax (MFI)", "setting": "[1]", "result": 31.1, "unit": "MFI"},
      {"measurement": "Emax (MFI)", "setting": "cyno CLDN6 (cyno)", "result": 225, "unit": "MFI"},
      {"measurement": "Emax (MFI)", "setting": "[2]", "result": 34, "unit": "MFI"},
      {"measurement": "Emax (MFI)", "setting": "[3]", "result": 26.9, "unit": "MFI"},
      {"measurement": "Emax (MFI)", "setting": "mouse CLDN6 (mouse)", "result": 41.8, "unit": "MFI"}
    ]}
  ]
}
